Measurements from patent US20250163140A1 (Kyowa Kirin, published 2025).

T1: Recombinant Human FGF-23 (R&D Systems, Cat No. 2604-FG-025/CF) (human, UniProt Q9GZV9 25-251)
T1 sequence (looked up): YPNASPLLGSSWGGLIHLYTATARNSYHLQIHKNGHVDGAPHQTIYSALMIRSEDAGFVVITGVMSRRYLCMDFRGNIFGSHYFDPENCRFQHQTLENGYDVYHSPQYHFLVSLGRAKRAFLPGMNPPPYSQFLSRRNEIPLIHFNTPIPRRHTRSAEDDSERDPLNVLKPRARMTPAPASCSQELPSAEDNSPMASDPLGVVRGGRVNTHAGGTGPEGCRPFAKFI


What was measured:
[1] = target: T1, Recombinant Human FGF-23 (R&D Systems, …); assay: cell-based or functional assay
[2] = target: T1, Recombinant Human FGF-23 (R&D Systems, …); assay: SPR, antibody captured on Protein A chip, FGF-23 analyte
[3] = target: T2, monkey FcRn (monkey FcRn-His tag with monkey β2 microglobulin) (cynomolgus monkey, UniProt Q8SPV9 24-297; Q8SPW0 21-119); assay: SPR pH 6, FcRn-His captured by anti-His, antibody analyte
T2 construct: also called cyno FcRn; cynomolgus monkey FcRn extracellular domain His-tag body
T2 sequence (Q8SPV9 other isoform, or with tags, fused parts or gaps limits assumed, chain 1 of 2): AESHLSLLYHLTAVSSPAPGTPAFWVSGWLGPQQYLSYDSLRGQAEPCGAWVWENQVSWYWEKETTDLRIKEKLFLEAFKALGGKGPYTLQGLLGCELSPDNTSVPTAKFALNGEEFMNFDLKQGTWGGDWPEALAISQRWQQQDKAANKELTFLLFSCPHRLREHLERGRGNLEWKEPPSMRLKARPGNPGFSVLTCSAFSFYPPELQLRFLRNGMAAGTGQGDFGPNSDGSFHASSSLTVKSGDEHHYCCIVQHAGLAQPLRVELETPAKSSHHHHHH
T2 sequence (Q8SPW0 21-119 limits assumed, chain 2 of 2): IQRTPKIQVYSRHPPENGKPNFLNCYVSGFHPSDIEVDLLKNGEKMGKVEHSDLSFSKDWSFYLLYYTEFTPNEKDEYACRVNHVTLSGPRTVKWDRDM

[4] = target: T3, human FcRn (human FcRn-His tag with human β2 microglobulin) (human, UniProt P55899 24-297; P61769 21-119); assay: as above
T3 construct: also called h FcRn; hFcRn

| FGF23 neutralizing activity IC50 (luciferase promoter assay) [1] [ng/mL] | Kd [2] [nM] | Kd [3] [nM] | Kd [4] [nM] | Binder |
| --- | --- | --- | --- | --- |
| 3.5 | 0.00822 |  |  | antibody A-1 (antibody, V domains shown, VH J2H2B9_A; not shown: human kappa chain constant region) VH: QVQLVQSGAEVKKPGASVKVSCKASGYTFTNHYMHWVRQAPGQGLEWMGLINPWHGTFSNAQKFQGRVTMTRDTSTSTVYMELSSLRSEDTAVYYCARDAVDAFDFWGQGTMVTVSS VL: AIQLTQSPSSLSASVGDRVTITCRASQGISSALVWYQQKPGKAPKLLIYDASSLESGVPSRFSGSGSGTDFTLTISSLQPEDFATYYCQQFNDYFTFGPGTKVDIK |
|  |  | 324 | 912 | antibody A_IgG4PE_R409K (antibody, copies: 2 + 2) heavy: not shown VL: AIQLTQSPSSLSASVGDRVTITCRASQGISSALVWYQQKPGKAPKLLIYDASSLESGVPSRFSGSGSGTDFTLTISSLQPEDFATYYCQQFNDYFTFGPGTKVDIK |
|  |  | 123 | 227 | antibody A_IgG4PE_R409K_YTE (antibody, copies: 2 + 2) heavy: QVQLVQSGAEVKKPGASVKVSCKASGYTFTNHYMHWVRQAPGQGLEWMGIINPISGSTSNAQKFQGRVTMTRDTSTSTVYMELSSLRSEDTAVYYCARDIVDAFDFWGQGTMVTVSSASTKGPSVFPLAPCSRSTSESTAALGCLVKDYFPEPVTVSWNSGALTSGVHTFPAVLQSSGLYSLSSVVTVPSSSLGTKTYTCNVDHKPSNTKVDKRVESKYGPPCPPCPAPEFEGGPSVFLFPPKPKDTLYITREPEVTCVVVDVSQEDPEVQFNWYVDGVEVHNAKTKPREEQFNSTYRVVSVLTVLHQDWLNGKEYKCKVSNKGLPSSIEKTISKAKGQPREPQVYTLPPSQEEMTKNQVSLTCLVKGFYPSDIAVEWESNGQPENNYKTTPPVLDSDGSFFLYSKLTVDKSRWQEGNVFSCSVMHEALHNHYTQKSLSLSLGK VL: AIQLTQSPSSLSASVGDRVTITCRASQGISSALVWYQQKPGKAPKLLIYDASSLESGVPSRFSGSGSGTDFTLTISSLQPEDFATYYCQQFNDYFTFGPGTKVDIK |
| 1.9 | 0.00874 |  |  | antibody A-4 (antibody, V domains shown, VL L3G12; not shown: human kappa chain constant region) VH: QVQLVQSGAEVKKPGASVKVSCKASGYTFTNHYMHWVRQAPGQGLEWMGIINPISGSTSNAQKFQGRVTMTRDTSTSTVYMELSSLRSEDTAVYYCARDYVDAFDFWGQGTMVTVSS VL: AIQLTQSPSSLSASVGDRVTITCRASQGISSALVWYQQKPGKAPKLLIYDASSLESGVPSRFSGSGSGTDFTLTISSLQPEDFATYYCQQMYDDFNFGPGTKVDIK |
| 3.6 | 0.0113 |  |  | antibody A-6 (antibody, V domains shown, VL L1H8; not shown: human kappa chain constant region) VH: QVQLVQSGAEVKKPGASVKVSCKASGYTFTNHYMHWVRQAPGQGLEWMGIINPISGSTSNAQKFQGRVTMTRDTSTSTVYMELSSLRSEDTAVYYCARDYVDAFDFWGQGTMVTVSS VL: AIQLTQSPSSLSASVGDRVTITCRASQDVSTALLWYQQKPGKAPKLLIYDASSLESGVPSRFSGSGSGTDFTLTISSLQPEDFATYYCQQFNDYFTFGPGTKVDIK |
| 2.4 | 0.0067 |  |  | antibody A-8 (antibody, V domains shown, VL 2L3H7; not shown: human kappa chain constant region) VH: QVQLVQSGAEVKKPGASVKVSCKASGYTFTNHYMHWVRQAPGQGLEWMGIINPISGSTSNAQKFQGRVTMTRDTSTSTVYMELSSLRSEDTAVYYCARDYVDAFDFWGQGTMVTVSS VL: AIQLTQSPSSLSASVGDRVTITCRASQGISSALVWYQQKPGKAPKLLIYDASSLESGVPSRFSGSGSGTDFTLTISSLQPEDFATYYCQQLYDDFDFGPGTKVDIK |
| 3.2 | 0.0161 |  |  | antibody A-7 (antibody, V domains shown, VL 2L3H7; not shown: human kappa chain constant region) VH: QVQLVQSGAEVKKPGASVKVSCKASGYTFTNHYMHWVRQAPGQGLEWMGIINPISGSTSNAQKFQGRVTMTRDTSTSTVYMELSSLRSEDTAVYYCARDAVDAFDFWGQGTMVTVSS VL: AIQLTQSPSSLSASVGDRVTITCRASQGISSALVWYQQKPGKAPKLLIYDASSLESGVPSRFSGSGSGTDFTLTISSLQPEDFATYYCQQLYDDFDFGPGTKVDIK |
| 1.9 | 0.00361 |  |  | antibody A-5 (antibody, V domains shown, VL L1H8; not shown: human kappa chain constant region) VH: QVQLVQSGAEVKKPGASVKVSCKASGYTFTNHYMHWVRQAPGQGLEWMGIINPISGSTSNAQKFQGRVTMTRDTSTSTVYMELSSLRSEDTAVYYCARDAVDAFDFWGQGTMVTVSS VL: AIQLTQSPSSLSASVGDRVTITCRASQDVSTALLWYQQKPGKAPKLLIYDASSLESGVPSRFSGSGSGTDFTLTISSLQPEDFATYYCQQFNDYFTFGPGTKVDIK |
| 2.7 | 0.00827 |  |  | antibody A-3 (antibody, V domains shown, VL L3G12; not shown: human kappa chain constant region) VH: QVQLVQSGAEVKKPGASVKVSCKASGYTFTNHYMHWVRQAPGQGLEWMGIINPISGSTSNAQKFQGRVTMTRDTSTSTVYMELSSLRSEDTAVYYCARDAVDAFDFWGQGTMVTVSS VL: AIQLTQSPSSLSASVGDRVTITCRASQGISSALVWYQQKPGKAPKLLIYDASSLESGVPSRFSGSGSGTDFTLTISSLQPEDFATYYCQQMYDDFNFGPGTKVDIK |
|  |  | 39.1 | 186 | antibody A_G2_YTE (antibody, not shown: human kappa chain constant region; copies: 2 + 2) heavy: QVQLVQSGAEVKKPGASVKVSCKASGYTFTNHYMHWVRQAPGQGLEWMGIINPISGSTSNAQKFQGRVTMTRDTSTSTVYMELSSLRSEDTAVYYCARDIVDAFDFWGQGTMVTVSSASTKGPSVFPLAPCSRSTSESTAALGCLVKDYFPEPVTVSWNSGALTSGVHTFPAVLQSSGLYSLSSVVTVPSSNFGTQTYTCNVDHKPSNTKVDKTVERKCCVECPPCPAPPVAGPSVFLFPPKPKDTLYITREPEVTCVVVDVSHEDPEVQFNWYVDGVEVHNAKTKPREEQFNSTFRVVSVLTVVHQDWLNGKEYKCKVSNKGLPAPIEKTISKTKGQPREPQVYTLPPSREEMTKNQVSLTCLVKGFYPSDIAVEWESNGQPENNYKTTPPMLDSDGSFFLYSKLTVDKSRWQQGNVFSCSVMHEALHNHYTQKSLSLSPGK light: AIQLTQSPSSLSASVGDRVTITCRASQGISSALVWYQQKPGKAPKLLIYDASSLESGVPSRFSGSGSGTDFTLTISSLQPEDFATYYCQQFNDYFTFGPGTKVDIK |
|  |  | 76.9 | 192 | antibody A_IgG4PE_R409K_P (antibody, not shown: human kappa chain constant region; copies: 2 + 2) heavy: not shown light: AIQLTQSPSSLSASVGDRVTITCRASQGISSALVWYQQKPGKAPKLLIYDASSLESGVPSRFSGSGSGTDFTLTISSLQPEDFATYYCQQFNDYFTFGPGTKVDIK |
| 3.4 | 0.00808 |  |  | antibody A-2 (antibody, V domains shown, VH J2H2B9_Y; not shown: human kappa chain constant region) VH: QVQLVQSGAEVKKPGASVKVSCKASGYTFTNHYMHWVRQAPGQGLEWMGLINPWHGTFSNAQKFQGRVTMTRDTSTSTVYMELSSLRSEDTAVYYCARDYVDAFDFWGQGTMVTVSS VL: AIQLTQSPSSLSASVGDRVTITCRASQGISSALVWYQQKPGKAPKLLIYDASSLESGVPSRFSGSGSGTDFTLTISSLQPEDFATYYCQQFNDYFTFGPGTKVDIK |
|  |  | 129 | 247 | antibody A_G2AAAS_A (antibody) chain 1: QVQLVQSGAEVKKPGASVKVSCKASGYTFTNHYMHWVRQAPGQGLEWMGIINPISGSTSNAQKFQGRVTMTRDTSTSTVYMELSSLRSEDTAVYYCARDIVDAFDFWGQGTMVTVSSASTKGPSVFPLAPCSRSTSESTAALGCLVKDYFPEPVTVSWNSGALTSGVHTFPAVLQSSGLYSLSSVVTVPSSNFGTQTYTCNVDHKPSNTKVDKTVERKCCVECPPCPAPPAAAPSVFLFPPKPKDTLMISRTPEVTCVVVDVSHEDPEVQFNWYVDGVEVHNAKTKPREEQFNSTFRVVSVLTVVHQDWLNGKEYKCKVSNKGLPASIEKTISKTKGQPREPQVYTLPPSREEMTKNQVSLTCLVKGFYPSDISVEWESNGQPENNYKTTPPMLDSDGSFFLYSKLTVDKSRWQQGNVFSCSVMHEALHAHYTQKSLSLSPGK chain 2: not shown |
|  |  | 69 | 213 | antibody A_G2AAAS_QL (antibody) chain 1: QVQLVQSGAEVKKPGASVKVSCKASGYTFTNHYMHWVRQAPGQGLEWMGIINPISGSTSNAQKFQGRVTMTRDTSTSTVYMELSSLRSEDTAVYYCARDIVDAFDFWGQGTMVTVSSASTKGPSVFPLAPCSRSTSESTAALGCLVKDYFPEPVTVSWNSGALTSGVHTFPAVLQSSGLYSLSSVVTVPSSNFGTQTYTCNVDHKPSNTKVDKTVERKCCVECPPCPAPPAAAPSVFLFPPKPKDQLMISRTPEVTCVVVDVSHEDPEVQFNWYVDGVEVHNAKTKPREEQFNSTFRVVSVLTVVHQDWLNGKEYKCKVSNKGLPASIEKTISKTKGQPREPQVYTLPPSREEMTKNQVSLTCLVKGFYPSDISVEWESNGQPENNYKTTPPMLDSDGSFFLYSKLTVDKSRWQQGNVFSCSVLHEALHNHYTQKSLSLSPGK chain 2: not shown |
|  |  | 87 | 265 | antibody A_IgG4PE_R409K_QL (antibody) chain 1: QVQLVQSGAEVKKPGASVKVSCKASGYTFTNHYMHWVRQAPGQGLEWMGIINPISGSTSNAQKFQGRVTMTRDTSTSTVYMELSSLRSEDTAVYYCARDIVDAFDFWGQGTMVTVSSASTKGPSVFPLAPCSRSTSESTAALGCLVKDYFPEPVTVSWNSGALTSGVHTFPAVLQSSGLYSLSSVVTVPSSSLGTKTYTCNVDHKPSNTKVDKRVESKYGPPCPPCPAPEFEGGPSVFLFPPKPKDQLMISRTPEVTCVVVDVSQEDPEVQFNWYVDGVEVHNAKTKPREEQFNSTYRVVSVLTVLHQDWLNGKEYKCKVSNKGLPSSIEKTISKAKGQPREPQVYTLPPSQEEMTKNQVSLTCLVKGFYPSDIAVEWESNGQPENNYKTTPPVLDSDGSFFLYSKLTVDKSRWQEGNVFSCSVLHEALHNHYTQKSLSLSLGK chain 2: not shown |
